From paper PMC5534430, “Crystal structure of a Pseudomonas malonate decarboxylase holoenzyme hetero-tetramer” (Nature Communications, 2017) come the findings set out here.

Series [1] concerns the target T1, MDC hetero-tetramer (MdcA active site) (Pseudomonas aeruginosa, UniProt Q9I6T0).
T1 construct: hybrid hetero-tetramer: full-length MdcA (1-554), MdcD, MdcE of P. aeruginosa and full-length MdcC of P. fluorescens without prosthetic group; only MdcE N-terminal His-tagged; E. coli Rosetta; 140 kD, 1:1:1:1; with Malonate decarboxylase acyl carrier protein (malonate decarboxylase subunit delta), Pseudomonas fluorescens; Malonate decarboxylase subunit beta; Malonate decarboxylase subunit gamma
The experiment in a line: X-ray crystal structure, […] Å. It is filed as binding. The following applies: malonate from the crystallization solution; MdcA active site between domains AN and AC; apo MdcC.

Series [2] has as its target MdcE subunit of malonate decarboxylase (P. aeruginosa), N-terminal His tag (P. aeruginosa). The experiment in a line: SEC; gel filtration of the co-expressed, purified MdcD–MdcE complex. (SEC sorts molecules by how far they enter the pores of the column.)
Substrate in the series “purified protein”: CC(C)(COP(=O)(O)OP(=O)(O)OC[C@H]1O[C@@H](n2cnc3c(N)ncnc32)[C@H](O)[C@@H]1OP(=O)(O)O)[C@@H](O)C(=O)NCCC(=O)NCCSC(=O)CC(=O)O
Put plainly: purified protein. It is filed as biochemical, Pseudomonas aeruginosa. Conditions: decarboxylation, 2.5 μM enzyme, 20 mM Tris pH 8.0, Hill equation fit, Hill coefficient 1.68 ± 0.13.

T1 sequence (Q4K4F7 whole entry, one chain of several, further chain): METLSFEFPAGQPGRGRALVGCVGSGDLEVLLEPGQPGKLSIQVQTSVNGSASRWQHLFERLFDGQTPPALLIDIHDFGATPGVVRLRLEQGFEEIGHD
T1 sequence (Q9I6T0 entry or part of it, one chain of several): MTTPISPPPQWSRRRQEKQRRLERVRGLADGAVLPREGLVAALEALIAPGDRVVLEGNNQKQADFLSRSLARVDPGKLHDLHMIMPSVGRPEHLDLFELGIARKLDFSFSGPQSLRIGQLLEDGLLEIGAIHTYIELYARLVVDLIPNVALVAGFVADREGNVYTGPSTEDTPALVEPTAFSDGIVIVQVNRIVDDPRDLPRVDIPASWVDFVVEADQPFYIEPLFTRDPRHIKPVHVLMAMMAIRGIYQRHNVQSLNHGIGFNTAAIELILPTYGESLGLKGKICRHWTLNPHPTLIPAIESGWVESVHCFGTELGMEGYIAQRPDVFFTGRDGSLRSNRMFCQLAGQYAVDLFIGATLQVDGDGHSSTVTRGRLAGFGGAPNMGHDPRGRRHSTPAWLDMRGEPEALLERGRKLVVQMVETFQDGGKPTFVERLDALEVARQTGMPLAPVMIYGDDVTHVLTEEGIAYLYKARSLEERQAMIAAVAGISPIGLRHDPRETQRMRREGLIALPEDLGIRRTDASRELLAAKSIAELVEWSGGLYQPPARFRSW

As for `O=C(O)CC(=O)O` [malonate], the “X-ray crystal structure, 2.2 Å” value in series [1] is “A malonate molecule from the crystallization solution is bound in the active site”.

B1: MdcD subunit of malonate decarboxylase (P. aeruginosa) (natural protein)
chain: MTDVARLLALRSFTELGARQRARALLDAGSFRELLDPFAGVQSPWLERQGIVPQADDGVVVARGLLDGQPAVLAAIEGAFQGGSLGEVSGAKIAGALELAAEDNRNGVPTRALLLLETGGVRLQEANLGLAAIAEIQAAIVDLQRYQPVVAVIAGPVGCFGGMSIAAGLCSYVLVTREARLGLNGPQVIEQEAGIAEYDSRDRPFIWSLTGGEQRFASGLADAYLADDLDEVRTSVLAYFAKGLPARPRCRRAEDYLRRLGDLDTAEQPDAAGVRRLYQGLGQGDAT
In turn, B1 displayed a stoichiometry N in series [2] of 1.

B2: MdcD–MdcE complex (Pseudomonas aeruginosa PAO1) (protein)
chain 1: MTDVARLLALRSFTELGARQRARALLDAGSFRELLDPFAGVQSPWLERQGIVPQADDGVVVARGLLDGQPAVLAAIEGAFQGGSLGEVSGAKIAGALELAAEDNRNGVPTRALLLLETGGVRLQEANLGLAAIAEIQAAIVDLQRYQPVVAVIAGPVGCFGGMSIAAGLCSYVLVTREARLGLNGPQVIEQEAGIAEYDSRDRPFIWSLTGGEQRFASGLADAYLADDLDEVRTSVLAYFAKGLPARPRCRRAEDYLRRLGDLDTAEQPDAAGVRRLYQGLGQGDAT
chain 2: MSQPFASRGLAWFQALAGSLAPRPGDPASLRVADAELDGYPVRFLAVVPDPDNPFPRARQGEVGLLEGWGLAAAVDEALEADREAPRKRALLAIVDVPSQAYGRREEALGIHQALAGAVDAYARARLAGHPLIGLLVGKAMSGAFLAHGYQANRLIALHDPGVMVHAMGKAAAARITLRSVEELEALAAKVPPMAYDIDSYASLGLLWRTLPVETVEVPSTADLVRVRTCLGEALADILGGPRDLGGRLGAANREASARVRRLLREQW
notes: full-length; N-terminal His-tagged MdcE (28 kD), untagged MdcD (30 kD); co-expressed in E. coli BL21Star (DE3) from pCDFDuet; 1:1 hetero-dimer in solution
On to B2, for which, in “purified protein”, the K0.5 was 100 ± 5 µM and the kcat was determined as 2.3 ± 0.1 s⁻¹.

For orientation: stoichiometry N means the number of molecules, sites or subunits per partner or assembly. The term kcat denotes the number of substrate molecules converted per active site and unit of time at saturation.
